Assay results taken from publication PMC3459099.

Target: ERp57-Cys57Ser–Cys406Ser double mutant (mutated ERp57) (human) (UniProt P30101)
Experiment: ELISA

recombinant N-terminal region of β-DG, β-DG(654–750), biotinylated (domain or fragment)
Kd: 10 µM
